B1: Ab2-7 IgG (antibody, V domains shown)
VH: QVTLKESGPTRVKPTQTLTLTCTFSGFSLSTTGVGVGWIRQPPGKALEWLALIYWNDDKRYSPSLKSRLTITKDTSKNQVVLTMTNMDPVDTATYYCARISGSGYFYPFDIWGQGTTVTVSS
VL: NFMLTQPHSVSESPGKTVTISCTRSSGSIASNYVQWYQQRPGSSPTTVIYEDNQRPSGVPDRFSGSIDSSSNSASLTISGLKAEDEADYYCQSYDSSSLWVFGGGTKLTVL
B2: RBD-R3-E1-B3 Ab (Ab_32) scFv-Fc (scFv, V domains shown)
VH: QVQLVQSGAEVKKPGESLKISCKGSGYSFTSYWIGWVRQMPGKGLEWMGIIYPGDSDTRYSPSFQGQVTISADKSISTAYLQWSSLKASDTAMYYCARGWQWHDYWGQGTLVTVSS
VL: QTVVTQEPAVSVALGQTVRITCQGDSLRSYYASWYQQKPGQAPVLVVYDKDKRPSGIPDRFSGSTSGNTASLTITGAQAEDEADYYCNSRDRSDNHVVFGGGTKLTVL
B3: Ab_20 scFv-Fc (scFv, V domains shown)
VH: QVQLVQSGGGSVKPGGSLRLSCAASGYRLSDYYMHWVRQAPGKGLEWVANIKQDGSEKYYVDSVKGRFTISRDNAKNSLYLQMNSLRAEDTAVYYCARVRGWSRGYFDYWGQGTLVTVSS
VL: NFMLTQPHSVSESPGKTVTISCTGSSGSIASNYVQWYQQRPGSAPTTVIYEDNQRPSGVPDRFSGSIDSSSNSASLLISGLKTEDEADYYCQSYDSSNHWVFGGGTKLTVL
B4: Ab_13 scFv-Fc (scFv, V domains shown)
VH: QVTLKESGPKLVKPTQTLTLTCTFSGFSLSTSGVGVGWIRQPPGKALEWLALIYWDDDKRYSPSLKSRLTIAKDTSKYQVVLTMTNMDPVDTATYYCARISGSGYFYPFDIWGQGTMVTVSA
VL: NFMLTQPHSVSESPGKTVTISCTRSSGSIASNYVQWYQQRPGSAPTTVIYEDNQRPSGVPDRFSGSIDSSSNSASLTISGLKTEDEADYYCQSYDSSNLWVFGGGTKLTVL
B5: S1-RBD-R3-T1-F5 (Ab2-7) scFv-Fc (scFv, V domains shown)
VH: QVTLKESGPTRVKPTQTLTLTCTFSGFSLSTTGVGVGWIRQPPGKALEWLALIYWNDDKRYSPSLKSRLTITKDTSKNQVVLTMTNMDPVDTATYYCARISGSGYFYPFDIWGQGTTVTVSS
VL: NFMLTQPHSVSESPGKTVTISCTRSSGSIASNYVQWYQQRPGSSPTTVIYEDNQRPSGVPDRFSGSIDSSSNSASLTISGLKAEDEADYYCQSYDSSSLWVFGGGTKLTVL
B6: Ab_25 scFv-Fc (scFv, V domains shown)
VH: QVQLVQSGGGLVQPGGSLRLSCAASGFTFSSYWMSWVRQAPGKGLEWVANIKQDGSEKYYVDSVKGRFTISRDNAKNSLYLQMNSLRAEDTAVYYCARGFYYYGAFDIWGQGTTVTVSS
VL: NFMLTQPHSVSESPGKTVTISCTGSSGSIASNYVQWYQQRPGSAPTTVIYEDNQRPSGVPDRFSGSIGSSSNSASLTISGLKTEDEADYYCQSYDSSNHWVFGGGTKLTVL
B7: S1-RBD-R3-T1-C7 Ab (Ab_29) scFv-Fc (scFv, V domains shown)
VH: QVQLQQSGPGLVKPSQTLSLTCAISGDSVSSYSDAWNWIRQSPSRGLEWLGRTYYRSKWYNDYAVSVKSRITINPDTSKNQFSLQLSSVTPEDTAVYYCAREIVATTPFRNYYYGMDVWGQGTTVTVSS
VL: NFMLTQPHSVSESPGNTVTISCTRTSGSIASNYVQWYQQRPGSSPTTVIFQDKLRPSGVPDRFSGSIDSSSNSASLTISGLKTEDEADYYCQSYDSSSLWVFGGGTKLTVL
B8: Ab_28 scFv-Fc (scFv, V domains shown)
VH: QVTLKESGPGLVNPSETLSLTCTVSGASISNSFWSWIRQSPGKGLEWIGYTSYSGNSIYNPSLKSRLTMSIDTSKNQLSLNLRSLTAADTAVYYCARREWIKGHFDYWGQGTLVTVSS
VL: NFMLTQPHSVSESPGKTVTISCTGSGGSIASNYVQWYQQRPGSAPTTVIYEDNQRPSGVPDRFSGSIDSSSNSASLTISGLKTEDEADYYCQSYDSSNPVVFGGGTKLTVL
B9: Ab_23 scFv-Fc (scFv, V domains shown)
VH: EVQLVQSGAEVKKPGSSVKVSCRSSGGTFSTYGITWVRQAPGQGLEWMGRIIPSLGIPNYAQKFQGRVTITADTSVSTAWMELSSLESDDTAIYYCARENIDLATNDFWGQGTLVTVSS
VL: QSALTQPPSASGSPGQSVTISCTGTSRDIGAYGYVSWYQQVPGKAPKLIIYEVRNRPSGVSSRFSGSKSGNTASLTISGLQAEDEADYYCSSYTSSSTLDVVFGGGTKLTVL
B10: RBD-R3-E1-A5 Ab (Ab_30) scFv-Fc (scFv, V domains shown)
VH: QVQLVQSGGGVVQPGKSLRLSCTASGFTFSDFPIHWVRQAPGKGLEWVGVISYDGNIKYYGDSVKGRFTISRDNAKNSLYLQMNSLRVEDTAVYYCARGGSSFDIWGQGTTVTVSS
VL: SYELTQPPSVSEAPRQRVTISCSGSTSNIGNNAVSWYQHLPGKAPKLLIYYNERLPSGVSDRFSGSKSGTSASLAISGLRSEDEADYYCAAWDDSLSGHVVFGGGTKLTVL
B11: Ab_21 scFv-Fc (scFv, V domains shown)
VH: QVQLVQSGGGLVQPGGSLRLSCATSGFTFDDYAMHWVRQAPGKGLEWVSGISWNSGSIGYVDSVKGRFTISRDNRNNKVYLQMNNLRAEDTAVYYCARDWWGSIDHWGLGTLVTVSS
VL: QSALTQPRSVSGSPGQSVTISCTGTSSDVGGYDYVSWYQQHPGKAPKLIIYDVSKRPSGVPDRFSGSKSGNTASLTVSGLQAEDEADYYCSSYTSSSPVVFGGGTKLTVL
B12: S1-RBD-R3-T1-B12 Ab (Ab_31) scFv-Fc (scFv, V domains shown)
VH: QVQLVQSGAEVKKPGSSVKVSCKASGGTFSSYTISWVRQAPGQGLEWMGGIIPILGTPNYAQKFQDRVAITADKSTSTAYMELSSLRSEDTAVYYCAVGSGWYSGFDYWGQGTLVTVSS
VL: NFMLTQPHSVSESPGKTVTISCTGSSGSIASNYVQWYQQRPGSAPTTVIYEDSQRPSGVPDRFSGSIDSSSNSASLTISGLKTEDEADYYCQSFHNSNPVIFGGGTKLTVL
B13: Ab_16 scFv-Fc (scFv, V domains shown)
VH: QVQLVQSGGGVVQPGRSLRLSCAASGFTFSNYGMHWVRQAPGKGLEWVALIWERGSKKDYADSVKGRFTVSRDNSKNTLYLQMNSLRPEDTAVYFCAREGISMTGAEYFQHWGQGTLVTVSS
VL: QSVLTQPPSVSGSPGQRVTMSCTGSSSNIGAGYDVHWYQQVPGAAPRLLIYGTNNRPSGVPDRFSGSKSGTSASLTITGLQAEDEADYYCQSYDNSLTDPYVFGTGTKVTVL
B14: Ab_17 scFv-Fc (scFv, V domains shown)
VH: QVQLVQSGGGVVQPGRSLRLSCAASGFTFDDYAMHWVRQVPGKGLEWVSGIDWNSGVIGYADSVKGRFTISRDNVKNSLYLQMNSLRTEDSALYYCAKDIGPGGSGSYYAFDIWGQGTTVTVSS
VL: QSALTQPASVSGSPGQSITISCTGTSSDVGGSKYVSWYQQHPGKAPKVMIYDVTKRPSGVPDRFSGSKSGNTASLTISGLQAEDEADYYCAAWDDSLNGVVFGGGTKLTVL
B15: Ab_14 scFv-Fc (scFv, V domains shown)
VH: QVQLQQSGPGLVKPSQTLSLTCAISGDSVSSNSAAWNWIRQSPARGLEWLGRTYYRSRWYNDYAISMKSRITINPDTSKNQFSLQLESVTPEDTAVYYCAREIRGFDYWGQGTLVTVSS
VL: QSVLTQPPSASGSPGQSVTISCTGTSSDVGAYNFVSWYQHHPGKAPKLIIYDFNKRPSGVPDRFSGSKSGNTASLTVSGLQADDEADYYCSSYAGSNNFDVVFGGGTKLTVL
B16: Ab_27 scFv-Fc (scFv, V domains shown)
VH: QVQLVQSGTEVKKPGASVKVSCKASGYSFTGSHLHWVRQAPGQGLEWMGWINPDSGVINYAQKFQGRVTLTRDTSISTAYMELSGLRSDDTAVYYCARDKAIGYVWALDYWGQGTLVTVSS
VL: QSALTQPPSVSGSPGQSVTISCTGTSSDVGTYNRVSWYQQPPGKAPKLMIYEVSNRPSGVSNRFSGSKSGNTASLTISGLQAEDEADYYCSSYTRTFTYVFGTGTKVTVL
B17: Ab_18 scFv-Fc (scFv, V domains shown)
VH: EVQLVQSGGGVVQPGRSLRVSCAASGFSFSRYGMHWVRQAPGKGLEWVAFIRHDGSKKYYADSVEGRFTISRDNSRNTVSLEMNSLRGEDTAVYYCAKDGRLEAALDDWGQGTLVTVSS
VL: NFMLTQPHSMSGSAGKTVTVSCIRSSGSIANNFVQWYQQRPGSAPTTVIYEDNQRPSGVPDRFSGSIDSSSNSASLTISGLKTEDEADYYCQSYDSSNLVFGGGTRLTVL
B18: S1-R3-T1-C4 (Ab_8) scFv-Fc (scFv, V domains shown)
VH: QVQLVQSGAEVKKPGSSVKVSCKASGGTFSSYAISWLRQAPGQGLEWMGWINPNSGGTNYAQKFQGRVTMTRDTSISTAYMELSRLRSDDTAVYYCARGSGGYYLGWGQGTLVTVSS
VL: QPGLTQPPSVSKGLRQTATLTCTGNSNNVGNQGAAWLQQHQGHPPKLLSYMNNNRPPGISERFSASRSGNTASLTITGLQPEDEADYYCSAWDSSLSRWVFGGGTKLSVL
B19: Ab_19 scFv-Fc (scFv, V domains shown)
VH: EVQLVESGAEVKKPGESLKISCKGSGYSFTSYWIGWVRQMPGKGLEWMGIIYPGDSDTRYSPSFQGQVTISADKSISTAYLQWSSLKASDTAMYYCARRGDLDAFDIWGQGTMVTVSS
VL: QPGLTQPPAASGTPGQRVTVSCSGASANIGSNAVSWFKQFPETAPRLLISGNTHRPSGVPDRVSGSKSGTSASLTISGLQSDDEADYYCAAWDDSLNGYVFGSGTKVTVL
B20: Ab_26 scFv-Fc (scFv, V domains shown)
VH: QVQLVQSGGGLVQPGRSLRLSCAASGFTFDDYAMHWVRQVPGKGLEWVSGIDWNSGVIGYADSVKGRFTISRDNAKNSLYLQMNSLRAEDTALYYCAKDAYSYGFLGAFDIWGQGTMVTVSS
VL: LPVLTQPPSVSVAPGQTASITCGGDNIRTKGVHWYQQKPGQAPLLVIYYASDRPSGIPERFSGSSSGNTATLTISRVEAGDEADYYCQVWDSSSDLVVFGGGTTLTVL

What follows are binders tested against SARS-CoV-2 spike trimer, soluble (SARS-CoV-2).

With B1 as the binder, how does the Kd read?
The Kd was less than 1 pM.

And the koff?
The koff was less than 1e-07 s⁻¹.

And the kon?
The kon was 4.31e+07 M⁻¹ s⁻¹.

These binders were tested against D614G Spike (SARS-CoV2).

How did the Kd turn out when B2 was run?
Its Kd is 7.26 pM.

And the Response?
The Response was 0.204.

How did the Kd turn out when B3 was run?
Its Kd is 8.64 pM.

And the Response?
The Response was 0.19.

How did the Kd turn out when B4 was run?
The Kd was 8.1 pM.

And the Response?
The Response was 0.107.

For B5, which Kd is on record?
The Kd was 9.93 pM.

And the Response?
The Response was 0.116.

B6 was tested. Which Kd did it give?
The Kd was 8.56 pM.

What about the Response of the same binder?
Its Response is 0.0425.

How did the Kd turn out when B7 was run?
The Kd was 1.04 pM.

And the Response?
Its Response is 0.202.

What does the source list for B8?
Kd: 9.41 pM; Response: 0.199

With B9 as the binder, how does the Kd read?
Its Kd is 8.82 pM.

What about the Response of the same binder?
Its Response is 0.162.

With B10 as the binder, how does the Kd read?
The Kd was 7.43 pM.

And the Response?
Its Response is 0.179.

With B11 as the binder, how does the Kd read?
The Kd was 8 pM.

And the Response?
Its Response is 0.228.

Which Kd does the source give for B12 here?
Its Kd is 9.03 pM.

And the Response?
The Response was 0.168.

Which results are given for B13?
Kd: 8.35 pM; Response: 0.434

What does the source list for B14?
Kd: 6.8 pM; Response: 0.357

What does the source list for B15?
Kd: 8.12 pM; Response: 0.402

Which Kd does the source give for B16 here?
Its Kd is 7.53 pM.

What about the Response of the same binder?
Its Response is 0.276.

B17 was tested. Which Kd did it give?
The Kd was 6.33 pM.

What about the Response of the same binder?
The Response was 0.291.

Which Kd does the source give for B18 here?
Its Kd is 7.3 pM.

And the Response?
The Response was 0.187.

With B19 as the binder, how does the Kd read?
Its Kd is 10.9 pM.

What about the Response of the same binder?
Its Response is 0.237.

Which results are given for B20?
Kd: 9.97 pM; Response: 0.304

Source: US20240409617A1
